Usually Kd stands for the free concentration of one partner at which half of the binding sites on the other are occupied at equilibrium, for simple one-to-one binding. A higher Kd goes with lower affinity.

The chains are these.
B1: chimeric ARNT-GFP protein (ARNT residues 82–470 fused to Aequorea GFP) (domain or fragment)
chain: not shown

Common to all, as to assay: FRET or BRET
(Bioluminescence resonance energy transfer reports proximity on the nanometre scale.)

Experiment [1] has as its target T1, His-tagged NPAS3 (neuronal PAS domain protein 3) (UniProt Q9QZQ0 56-455).
T1 sequence (looked up): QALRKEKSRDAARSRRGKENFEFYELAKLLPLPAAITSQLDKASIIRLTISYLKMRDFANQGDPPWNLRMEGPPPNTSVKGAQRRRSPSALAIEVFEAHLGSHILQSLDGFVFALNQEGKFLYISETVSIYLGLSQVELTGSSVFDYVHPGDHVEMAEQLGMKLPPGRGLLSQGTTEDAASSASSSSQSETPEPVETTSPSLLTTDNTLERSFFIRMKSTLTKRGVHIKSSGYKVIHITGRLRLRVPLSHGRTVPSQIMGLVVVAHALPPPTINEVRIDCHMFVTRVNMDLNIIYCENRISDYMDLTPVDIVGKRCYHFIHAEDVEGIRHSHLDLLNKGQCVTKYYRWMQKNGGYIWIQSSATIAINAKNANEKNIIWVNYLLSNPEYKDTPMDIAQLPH

The target in experiment [2] is B1.
Experiment [3] deals with ARNT F446L-GFP (ARNT residues 82–470 fused to Aequorea GFP) (mouse, UniProt P53762 82-470, F446L).
Sequence of ARNT F446L-GFP (ARNT residues 82–470 fused to Aequorea GFP) (P53762 82-470 F446L): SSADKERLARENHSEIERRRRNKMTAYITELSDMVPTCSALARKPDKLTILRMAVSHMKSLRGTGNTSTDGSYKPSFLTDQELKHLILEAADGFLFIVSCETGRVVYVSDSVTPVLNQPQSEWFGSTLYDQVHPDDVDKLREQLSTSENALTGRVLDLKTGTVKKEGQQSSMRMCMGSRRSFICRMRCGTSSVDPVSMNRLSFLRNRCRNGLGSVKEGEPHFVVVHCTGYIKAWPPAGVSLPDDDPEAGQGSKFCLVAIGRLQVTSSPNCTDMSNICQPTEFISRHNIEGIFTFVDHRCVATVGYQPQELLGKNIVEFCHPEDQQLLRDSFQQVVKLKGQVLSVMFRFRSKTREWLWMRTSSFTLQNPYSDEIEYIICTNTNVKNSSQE

In experiment [1], B1 yielded a Kd of 8.6 nM.

B2: mouse HIF-2α bHLH-PAS-A-PAS-B region (3–361), His-tagged (domain or fragment)
chain: not shown
B2: the Kd was 29.1 nM in experiment [2] and roughly 0.8 nM in experiment [3].

B3: His-tagged HIF-1α (domain or fragment)
chain: not shown
As to B3, the Kd in experiment [2] is 11.7 nM.

B4: HIF-2α mutant M252A (3–361), His-tagged (domain or fragment)
chain: not shown
B4 showed an equilibrium dissociation constant (Kd) in experiment [2] of 1.4 nM.

B5: HIF-2α G323E (3–361), His-tagged (domain or fragment)
chain: not shown
In experiment [2], B5 yielded a Kd of roughly 10.5 nM.

The values above are taken from PMC6447045 (Nature chemical biology, 2019).
